One may read the stoichiometry N as the number of molecules, sites or subunits per partner or assembly.

The text below walks through data of publication PMC2808226 (Molecular Biology of the Cell, 2010).

The target in assay [1] is nicotinic acetylcholine receptor (mouse (endogenous in gastrocnemius muscle and in myotubes)) (UniProt P04756). The assay can be described thus: pull-down.
A further assay deals with nAChR-α-c-myc (UniProt P04756 21-457). Description: co-IP.
Sequence of nAChR-α-c-myc (P04756 21-457): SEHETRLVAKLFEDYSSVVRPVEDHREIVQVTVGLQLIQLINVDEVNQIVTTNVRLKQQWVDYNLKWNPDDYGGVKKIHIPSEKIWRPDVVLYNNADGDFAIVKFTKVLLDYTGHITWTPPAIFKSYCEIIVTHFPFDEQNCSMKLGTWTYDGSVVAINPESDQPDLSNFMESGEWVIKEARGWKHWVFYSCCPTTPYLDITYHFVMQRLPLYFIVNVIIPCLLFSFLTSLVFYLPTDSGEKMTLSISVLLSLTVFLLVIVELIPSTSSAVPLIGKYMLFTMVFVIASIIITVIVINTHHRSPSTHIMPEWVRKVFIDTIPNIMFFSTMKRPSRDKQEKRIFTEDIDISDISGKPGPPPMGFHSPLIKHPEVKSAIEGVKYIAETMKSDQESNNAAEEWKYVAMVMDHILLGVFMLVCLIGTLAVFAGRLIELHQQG

Sequence of nicotinic acetylcholine receptor (mouse (endogenous in gastrocnemius muscle and in myotubes)) (P04756 whole entry, looked up): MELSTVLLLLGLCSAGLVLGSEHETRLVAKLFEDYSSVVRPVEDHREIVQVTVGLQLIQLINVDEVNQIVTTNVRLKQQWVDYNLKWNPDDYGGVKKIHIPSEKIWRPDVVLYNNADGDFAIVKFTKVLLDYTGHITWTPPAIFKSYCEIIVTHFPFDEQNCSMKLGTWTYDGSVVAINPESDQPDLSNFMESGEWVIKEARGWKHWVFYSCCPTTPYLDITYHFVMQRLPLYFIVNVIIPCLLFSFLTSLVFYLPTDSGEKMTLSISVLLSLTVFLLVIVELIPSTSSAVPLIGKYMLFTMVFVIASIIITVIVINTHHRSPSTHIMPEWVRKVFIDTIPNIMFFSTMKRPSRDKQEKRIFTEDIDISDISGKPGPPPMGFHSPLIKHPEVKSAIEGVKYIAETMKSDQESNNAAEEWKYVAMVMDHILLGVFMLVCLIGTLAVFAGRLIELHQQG

For “caveolin-3 (from UniProt P51637 1-151) (natural protein)”, the percent of caveolin-3 that interacts with the nAChR, after agrin treatment in assay [1] came to 5%.

B1: caveolin-3-c-myc (natural protein)
chain: MMTEEHTDLEARIIKDIHCKEIDLVNRDPKNINEDIVKVDFEDVIAEPEGTYSFDGVWKVSFTTFTVSKYWCYRLLSTLLGVPLALLWGFLFACISFCHIWAVVPCIKSYLIEIQCISHIYSLCIRTFCNPLFAALGQVCSNIKVVLRREG
As for B1, in the assay with nAChR-α-c-myc, the “stoichiometry N” value was around 14 caveolin-3 per nAChR. In assay [1], this molecule had a percent of caveolin-3 that interacts with the nAChR, resting conditions of 0.25%.
